Biological target: mcl1_human MCL1 (UniProt Q07820)
Sequence (Q07820 whole entry): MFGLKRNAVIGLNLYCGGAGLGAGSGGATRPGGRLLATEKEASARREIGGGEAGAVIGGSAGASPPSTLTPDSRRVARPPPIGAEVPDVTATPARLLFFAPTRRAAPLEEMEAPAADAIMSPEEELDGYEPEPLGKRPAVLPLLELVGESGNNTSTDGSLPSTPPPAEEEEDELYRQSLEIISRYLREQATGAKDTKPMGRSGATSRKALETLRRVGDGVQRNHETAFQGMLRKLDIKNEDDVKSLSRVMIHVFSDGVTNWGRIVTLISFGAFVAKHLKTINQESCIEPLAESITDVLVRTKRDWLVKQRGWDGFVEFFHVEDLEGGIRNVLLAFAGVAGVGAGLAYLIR

Substance: Ubiquitin carboxyl-terminal hydrolase 9X (Homo sapiens), Q93008 C1566S
- effect of a mutation on the interaction: disrupting interaction

— IntAct's records for PubMed 20023629
